This note sets out measurements from paper PMC10300302 (Cell Insight, 2023).

The assay concerns the target T1, GST-Sirt1 (human, UniProt Q96EB6 1-747).
T1 sequence (looked up): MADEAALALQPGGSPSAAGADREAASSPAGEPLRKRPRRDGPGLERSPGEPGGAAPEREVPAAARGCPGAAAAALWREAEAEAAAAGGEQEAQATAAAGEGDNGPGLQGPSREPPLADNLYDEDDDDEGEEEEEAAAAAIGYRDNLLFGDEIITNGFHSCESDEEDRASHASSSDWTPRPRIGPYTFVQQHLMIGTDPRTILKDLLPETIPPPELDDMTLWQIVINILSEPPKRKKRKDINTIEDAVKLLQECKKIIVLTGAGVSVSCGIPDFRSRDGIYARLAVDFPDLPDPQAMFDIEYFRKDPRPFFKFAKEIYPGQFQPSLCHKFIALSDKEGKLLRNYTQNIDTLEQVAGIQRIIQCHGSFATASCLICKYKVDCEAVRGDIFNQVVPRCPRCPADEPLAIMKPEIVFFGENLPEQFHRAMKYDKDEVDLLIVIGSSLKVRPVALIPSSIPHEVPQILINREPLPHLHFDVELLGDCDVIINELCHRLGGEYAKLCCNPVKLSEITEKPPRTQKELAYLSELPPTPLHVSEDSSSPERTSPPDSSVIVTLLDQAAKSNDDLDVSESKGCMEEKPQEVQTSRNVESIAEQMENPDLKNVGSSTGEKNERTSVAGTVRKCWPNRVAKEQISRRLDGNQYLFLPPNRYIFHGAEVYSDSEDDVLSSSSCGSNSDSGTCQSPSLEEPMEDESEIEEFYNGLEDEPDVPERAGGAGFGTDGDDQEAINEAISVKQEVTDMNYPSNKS
As to the kind of experiment: pull-down.

B1: MBP-CHCHD2-His (CHCHD2-isoform2) (natural protein, human, UniProt Q9Y6H1 1-151, looked up)
chain: MPRGSRSRTSRMAPPASRAPQMRAAPRPAPVAQPPAAAPPSAVGSSAAAPRQPGLMAQMATTAAGVAVGSAVGHTLGHAITGGFSGGSNAEPARPDITYQEPQGTQPAQQQQPCLYEIKQFLECAQNQGDIKLCEGFNEVLKQCRLANGLA
Take B1: the binding result is given as “binds”.
